This sample holds only a part of the variants without activity.
Assays:
[1] = test system: biotinyl-Trp-oxazolone; test: self-aminoacylation, catalytic enhancement (BWO) (fold over background); higher = more active; k-Seq, kA / k0A0; sequences stand for … in GGGAAUGGAUCCACAUCUACGAAUUC…UUCACUGCAGACUUGACGAAGCUG
Summary of the method: (§1)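 The uncatalyzed rate is the low-activity peak of a bimodal Gaussian fit, and catalytic enhancement is median kA divided by it. The kA values came from pseudo-first-order fits, with 1000 bootstraps, of per-sequence fraction reacted measured by streptavidin capture, triplicate qPCR and Illumina sequencing. Mutagenized RNA pools with a 21-nt variable region (0.43 μM) were reacted with each biotinyl-aminoacyl-oxazolone at 2–1250 μM in 50 μL HEPES/NaCl/KCl/MgCl2/CaCl2 buffer with 5% acetonitrile, pH 6.9–7.0, for 90 minutes at room temperature.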

[2] = test system: biotinyl-Phe-oxazolone; test: self-aminoacylation, catalytic enhancement (BFO) (fold over background); higher = more active; k-Seq, kA / k0A0; sequences stand for … in GGGAAUGGAUCCACAUCUACGAAUUC…UUCACUGCAGACUUGACGAAGCUG
Summary of the method: as §1

Sequence | self-aminoacylation [1] | self-aminoacylation [2]
AUUACCAUGGUCAUCGAGGGA [Fam2.1 aminoacylation ribozyme variant] | 2.58 | 2.21
UUACUUCAAAUAAUCGGUCUG [Fam1A.1 aminoacylation ribozyme variant] | 7.5 | 10.3
AUUCACCUAGUUCAUCGGGUA [Fam2.2 aminoacylation ribozyme variant] | 2.37 | 5.42
CUACACUUCAAUCAAUCGGUC [Fam1B.1 aminoacylation ribozyme variant] | 18.5 | 37.4
CUAGUUCAAUCAAUCGGUCUG [Fam1A.1 aminoacylation ribozyme variant] | 2.63 | 3.97
GCACACUUCAAGCAAUCAGUC [Fam1B.1 aminoacylation ribozyme variant] | 4.94 | 9.69
AAGUGUGCUAAUAGUCGAAAG [Fam3.1 aminoacylation ribozyme variant] | 4.55 | 11.5
CUAGUUCCAACAAUCGGUCUG [Fam1A.1 aminoacylation ribozyme variant] | 9.72 | 9.79
AAGUUUGCUAAUGGUCGCAAA [Fam3.1 aminoacylation ribozyme variant] | 2.87 | 2.48
GUACUUCAAACAAUCGGUCCG [Fam1A.1 aminoacylation ribozyme variant] | 3.6 | 6.11
CCACUUCAAACAUUCGGUCUG [Fam1A.1 aminoacylation ribozyme variant] | 2.73 | 5.58
CGACUUCAAACAAUCGGUCUA [Fam1A.1 aminoacylation ribozyme variant] | 6.02 | 12.7
CUACUUCAAACAAUCGGUCUU [Fam1A.1 aminoacylation ribozyme variant] | 15.3 | 31.2
GCACAUUUCAAGCAAUCGGUC [Fam1B.1 aminoacylation ribozyme variant] | 3.16 | 3.69
CCAUACUUCAAACAAUCGGUC [Fam1B.1 aminoacylation ribozyme variant] | 30.3 | 66.4
ACUCACUUCAAGCAAUCGGUC [Fam1B.1 aminoacylation ribozyme variant] | 5.36 | 9.3
CUACAGUUCAAGCAAUCGGUC [Fam1B.1 aminoacylation ribozyme variant] | 2.96 | 4.84
UAGUUUGCUAAUAGUCGGAAG [Fam3.1 aminoacylation ribozyme variant] | 2.37 | 6.04
CUACUUCAAACAAUCGGUCAG [Fam1A.1 aminoacylation ribozyme variant] | 7.09 | 16.7
CCACACCUCAAUCAAUCGGUC [Fam1B.1 aminoacylation ribozyme variant] | 2.88 | 3.88
CCACUUCAAACGAUCGGUCUG [Fam1A.1 aminoacylation ribozyme variant] | 2.62 | 3.03

Sequence | self-aminoacylation [1] | self-aminoacylation [2]
AAGUUUGCUAGUAGUCGCACG [Fam3.1 aminoacylation ribozyme variant] | 2.21 | 3.09
CCACUUCAAAUAAUCGGUCUG [Fam1A.1 aminoacylation ribozyme variant] | 15.2 | 17.9
CCACACUCCAACCAAUCGGUC [Fam1B.1 aminoacylation ribozyme variant] | 2.18 | 3.55
CAACUUCAAACAAUCUGUCUG [Fam1A.1 aminoacylation ribozyme variant] | 2.14 | 4.35
UUUCUUCAAACAAUCGGUCUG [Fam1A.1 aminoacylation ribozyme variant] | 5.16 | 7.67
UCAUACUUCAAGCAAUCGGUC [Fam1B.1 aminoacylation ribozyme variant] | 9.74 | 16.9
CCAGACUUCAAGGAAUCGGUC [Fam1B.1 aminoacylation ribozyme variant] | 5.9 | 6.35
CUACACUUCAAGCAAUCGGUC [Fam1B.1 aminoacylation ribozyme variant] | 22.8 | 54.5
CCACACUUCAACCGAUCGGUC [Fam1B.1 aminoacylation ribozyme variant] | 5.96 | 3.75
UAGUUUGCUAAUAGUCGUAAG [Fam3.1 aminoacylation ribozyme variant] | 4.18 | 17.9
UUACUUCAAACAAUCGGUCUA [Fam1A.1 aminoacylation ribozyme variant] | 2.61 | 6.02
UCACACUUCAAGGAAUCGGUC [Fam1B.1 aminoacylation ribozyme variant] | 3.91 | 5.43
CUACUUCAACCAAUCGGUUUG [Fam1A.1 aminoacylation ribozyme variant] | 10.8 | 17
CCACUCUUCAAGGAAUCGGUC [Fam1B.1 aminoacylation ribozyme variant] | 3.24 | 3
AAGAUUGCUUAUAGUCGCAAG [Fam3.1 aminoacylation ribozyme variant] | 2.35 | 2.44
UUACUUCAAACAAUCAGUCUG [Fam1A.1 aminoacylation ribozyme variant] | 9.66 | 20.1
CUGGUUCAAACAAUCGGUCUG [Fam1A.1 aminoacylation ribozyme variant] | 9.11 | 14
UUAAUUCAAACAAUCGGUCUG [Fam1A.1 aminoacylation ribozyme variant] | 2.47 | 3.57
CCACCCUUCAAUCAAUCGGUC [Fam1B.1 aminoacylation ribozyme variant] | 20.9 | 28.6
CUACUUCAAACAAUCGGUUUC [Fam1A.1 aminoacylation ribozyme variant] | 2.18 | 4.72
CAACUUCAAACAAUCGGUCAG [Fam1A.1 aminoacylation ribozyme variant] | 11.9 | 19.5

Sequence | self-aminoacylation [1] | self-aminoacylation [2]
AUACUUCAAACAAUCGGUCUC [Fam1A.1 aminoacylation ribozyme variant] | 7.89 | 13.5
AAGUUUGCUAAUAGCCGCAAG [Fam3.1 aminoacylation ribozyme variant] | 2.2 | 6.96
CCCCACUUCUAGCAAUCGGUC [Fam1B.1 aminoacylation ribozyme variant] | 2.23 | 2.55
GCACACUUCAAGCAAUCGGUC [Fam1B.1 aminoacylation ribozyme variant] | 19.8 | 32.3
CUACUUCAAACAAUCGGUCGU [Fam1A.1 aminoacylation ribozyme variant] | 10.3 | 16.3
CGACCCUUCAAGCAAUCGGUC [Fam1B.1 aminoacylation ribozyme variant] | 3.13 | 3.2
CCCCACUUAAAGCAAUCGGUC [Fam1B.1 aminoacylation ribozyme variant] | 2.05 | 2.09
CCACACUUCAAGUAAUCGGUC [Fam1B.1 aminoacylation ribozyme variant] | 9.7 | 16.4
CUACUUCAAAUAAUCGGUUUG [Fam1A.1 aminoacylation ribozyme variant] | 8.58 | 16
AAGUUUCCUAAUAGUCGCACG [Fam3.1 aminoacylation ribozyme variant] | 2.23 | 2.96
AAGUUUUCUAUUAGUCGCAAG [Fam3.1 aminoacylation ribozyme variant] | 2.07 | 2.22
CAACGUCAAACAAUCGGUCUG [Fam1A.1 aminoacylation ribozyme variant] | 2.6 | 3.29
AAGAUUGCUAAUAGUCGUAAG [Fam3.1 aminoacylation ribozyme variant] | 2.41 | 9.9
CCACGCCUCAAGCAAUCGGUC [Fam1B.1 aminoacylation ribozyme variant] | 6.73 | 10.4
CUCCUUCAAAGAAUCGGUCUG [Fam1A.1 aminoacylation ribozyme variant] | 5.66 | 6.59
CAAGACUUCAAGCAAUCGGUC [Fam1B.1 aminoacylation ribozyme variant] | 9.73 | 15.3
CCUCUCUUCAAGCAAUCGGUC [Fam1B.1 aminoacylation ribozyme variant] | 20 | 36.3
CCACACUUCAACCAAUCGGUU [Fam1B.1 aminoacylation ribozyme variant] | 11.9 | 12.3
CCCCACUUUAAGCAAUCGGUC [Fam1B.1 aminoacylation ribozyme variant] | 2.1 | 2.4
CAACUUCAAACGAUCGGUCUG [Fam1A.1 aminoacylation ribozyme variant] | 2.65 | 2.25

From the supplement of paper PMC9233669
